Results: US20250171562A1

B1: D2A1(G4S)4 (bispecific antibody)
chain: DVQLQESGGGLVEAGGSLRLSCVASGRTFSGWSMGWFRQAPGKEREFVAAISWVGSWIGGTVYSNSVKGRFTISRDNARTTVYLQMNSLKPEDTAVYFCAAANSETPRIFASEYDYWGQGTQVTVSGGGGSGGGGSGGGGSGGGGSEVQLLESGGGLVQPGGSLRLSCAASGFTFGNYDMAWVRQAPGKRPEWVSSIDTGGDITHYADSVKGRFTISRDNAKNTLYLQMNSLRPEDTAVYWCATDEEYALGPNEFDYYGQGTLVTVS
B2: A1B1(G4S)4 (bispecific antibody)
chain: EVQLLESGGGLVQPGGSLRLSCAASGFTFGNYDMAWVRQAPGKRPEWVSSIDTGGDITHYADSVKGRFTISRDNAKNTLYLQMNSLRPEDTAVYWCATDEEYALGPNEFDYYGQGTLVTVSGGGGSGGGGSGGGGSGGGGSQVQLQESGGGLVQTGGSLRLSCAVHGRTFSNTGMGWFRQAPGNERQFVAIISPSGTSTYYADSVKGRFTISRDPAKNTVYLQMNSLKMDDTAVYYCAASYGSNWSTLRHQRRNEYDAWGQGTQVAVS
B3: A1B2(G4S)4 (bispecific antibody)
chain: EVQLLESGGGLVQPGGSLRLSCAASGFTFGNYDMAWVRQAPGKRPEWVSSIDTGGDITHYADSVKGRFTISRDNAKNTLYLQMNSLRPEDTAVYWCATDEEYALGPNEFDYYGQGTLVTVSGGGGSGGGGSGGGGSGGGGSQVQLVESGGGLVQAGGSLRLSCAVFGSTFSNNVADWYRQAPGKQRELVARISASGATREYGDSVKGRFTISRDDAKNTMYLQMNNLKPEDTAVYRCHKIEWEDLSRKDYWGQGTQVTVS
B4: B3A1(G4S)4 (bispecific antibody)
chain: DVQLQESGGGLVQAGGSLRLSCAASGFIFRLAGMSWVRQAPGKGFEWVSGITMDGSTTNYADSVKGRFTISRDNSKNRLYLQMNSLKPEDTAVYYCARGAKGGYNDPRGQGTQVTVSGGGGSGGGGSGGGGSGGGGSEVQLLESGGGLVQPGGSLRLSCAASGFTFGNYDMAWVRQAPGKRPEWVSSIDTGGDITHYADSVKGRFTISRDNAKNTLYLQMNSLRPEDTAVYWCATDEEYALGPNEFDYYGQGTLVTVS
B5: B2A1(G4S)4 (bispecific antibody)
chain: QVQLVESGGGLVQAGGSLRLSCAVFGSTFSNNVADWYRQAPGKQRELVARISASGATREYGDSVKGRFTISRDDAKNTMYLQMNNLKPEDTAVYRCHKIEWEDLSRKDYWGQGTQVTVSGGGGSGGGGSGGGGSGGGGSEVQLLESGGGLVQPGGSLRLSCAASGFTFGNYDMAWVRQAPGKRPEWVSSIDTGGDITHYADSVKGRFTISRDNAKNTLYLQMNSLRPEDTAVYWCATDEEYALGPNEFDYYGQGTLVTVS
B6: B1A1(G4S)4 (bispecific antibody)
chain: QVQLQESGGGLVQTGGSLRLSCAVHGRTFSNTGMGWFRQAPGNERQFVAIISPSGTSTYYADSVKGRFTISRDPAKNTVYLQMNSLKMDDTAVYYCAASYGSNWSTLRHQRRNEYDAWGQGTQVAVSGGGGSGGGGSGGGGSGGGGSEVQLLESGGGLVQPGGSLRLSCAASGFTFGNYDMAWVRQAPGKRPEWVSSIDTGGDITHYADSVKGRFTISRDNAKNTLYLQMNSLRPEDTAVYWCATDEEYALGPNEFDYYGQGTLVTVS
B7: A1B3(G4S)4 (bispecific antibody)
chain: EVQLLESGGGLVQPGGSLRLSCAASGFTFGNYDMAWVRQAPGKRPEWVSSIDTGGDITHYADSVKGRFTISRDNAKNTLYLQMNSLRPEDTAVYWCATDEEYALGPNEFDYYGQGTLVTVSGGGGSGGGGSGGGGSGGGGSDVQLQESGGGLVQAGGSLRLSCAASGFIFRLAGMSWVRQAPGKGFEWVSGITMDGSTTNYADSVKGRFTISRDNSKNRLYLQMNSLKPEDTAVYYCARGAKGGYNDPRGQGTQVTVS

What follows are binders tested against mixture of three Der p 2 specific recombinant human IgE clones H10, H12, P4E (human) (UniProt P01854) (assay: RBL-SX38 IgE displacement, FACS).
Sequence of mixture of three Der p 2 specific recombinant human IgE clones H10, H12, P4E (human) (P01854 other isoform, or with tags, fused parts or gaps): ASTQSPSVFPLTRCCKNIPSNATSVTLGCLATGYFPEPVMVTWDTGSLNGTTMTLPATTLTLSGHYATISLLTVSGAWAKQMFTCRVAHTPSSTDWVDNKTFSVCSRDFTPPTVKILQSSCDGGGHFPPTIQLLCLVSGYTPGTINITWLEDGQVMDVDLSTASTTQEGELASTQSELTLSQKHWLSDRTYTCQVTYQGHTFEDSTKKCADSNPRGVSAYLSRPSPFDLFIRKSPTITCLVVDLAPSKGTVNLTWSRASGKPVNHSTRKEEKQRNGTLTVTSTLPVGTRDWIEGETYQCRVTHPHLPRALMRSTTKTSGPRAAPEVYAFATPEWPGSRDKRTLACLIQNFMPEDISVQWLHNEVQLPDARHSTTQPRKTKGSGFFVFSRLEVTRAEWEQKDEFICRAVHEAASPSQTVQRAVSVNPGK

EC50 [nM]	Max effect/effect 1 µM [%]	Binder
78.7	83	B1
1.4	100	B2
0.8	100	B3
2	100	B4
5.8	92	B5
1.4	100	B6
0.4	99	B7
